15 sequences from the DeepSol protein solubility set can be followed below.

The data set can be described thus: soluble on expression in E. coli; label from the status in PepcDB or PDB records.
In the case of “MSGAAADGIDDRDIPKQEFLDAAFNGDIDKIDGLLRDKKVHIDSVDDDQVTALHIAAAMGNNKLVVRLLDYGANIHAVNHLGMTAYHYAAREGKLAVLDTLMQRGASKNQTTALGVTALTLACAGGHADVVRRLIRISNETPRSKQSLAPTPLIVATCSKSPQICSYLADFRVNLDESMKNLGNLTALSMAIVCTPGVYMVRTLIDLGASVNKKGLGDKTAEELAIMLNRKDLIHFFNEKKSYRSRMNADSDVRKEIKNDHIIERELGAPAQNGVSPLMYATTVRSINSAKHLVLHRDSDVNMRDNLHITSLQIASLLRVDDIIPLLLQRRADVTVVNKYGSTAYDLFLLSCDFLEPGQLRGQLHCHRPIDSKSNLNSSSSNIYKALRSQGILTKVGSQIGINSAKIELIEPKHWLAAKTKYQPAKLRNNYKFASVEDILKSCKVAKRPETNECDNETEAIREYMEECQSFAVFCFSDFYGERENNKATIPDYYDKAQDNAKRYAYLRMDGLDKKNSGRQENVSKLIPVRPRKDSIEREYRKPRNIALVDSPSQSQMRTTPRMLKKRDTDYFSAQAGRARASSTSLQVPTVTVTRQRHVTSPVIEDMIWNHFVRRGKNELMRVLQAAEIDKHSFFSLQQKDLEAMNSYTPENMKLIEDIQTAILSRSL”, the “soluble on expression in E. coli” value is given as “not soluble”.

Turning to “MSGALDGVRVLDLSRVLAGPYATMILGDLGADVIKVEAPGGSDDTRFWGPPFQNGMSAYYTAVNRNKRSITVNLKSAEGQETIRRLAETADVLIHNFKTGTMEQWELGYESLSRLNPRLIYCSITGFGETGPLAPLAGYDYIIQAMSGWMSINGTADTGPLKVGVAVTDVFTGLYAAIAIEAALLAREKTGRGQKIDLALFDCAVSALVNVAANYLLSGDVPKPLGNEHPNIVPYSTYMASDGPIVIAVGNDRQFQALCSLLSDHSLGTDPRFQTNPGRVAHREELNRRLNEEIKRRTRAEWQRLLAEKGIPCGPVQTLDELFRHPQTAAREMTVTVHHPIVGPLTLVASPLKLSDTAVSYRLPPPLAGEHNGEVEAGWQGKPAAENGPHDKNQ”, the “soluble on expression in E. coli” value is given as “not soluble”.

For the sequence “MSGETTRLTEPQLRELAARGAAELDGATATDMLRWTDETFGDIGGAGGGVSGHRGWTTCNYVVASNMADAVLVDLAAKVRPGVPVIFLDTGYHFVETIGTRDAIESVYDVRVLNVTPEHTVAEQDELLGKDLFARNPHECCRLRKVVPLGKTLRGYSAWVTGLRRVDAPTRANAPLVSFDETFKLVKVNPLAAWTDQDVQEYIADNDVLVNPLVREGYPSIGCAPCTAKPAEGADPRSGRWQGLAKTECGLHAS”, the “soluble on expression in E. coli” value was “soluble”.

Turning to “MSGFKWSPDQKWISFLAVPTASWSADSNTLCLVRADGSRFEKVDQMLLNAQWFQWAPSKNILAYIEGSGRVALENKHLKVKELPALQQNIFTPKGYVDWDFVWKNDRVIIVSRAKEAGIETPPEKRPLPSLYEVDSTSNAQHQITKKTNKQGDYHPIFMKKSNQLIWIRSDRKKADVWLAHKDRKQEKKWIENIDVPAWYYEKWNWGNVISVKEELEHHHHHH”, the “soluble on expression in E. coli” value is recorded as “not soluble”.

As to “MSHAVSRLRQERLARSLKPFVARGSRMPRCEGCRLLPSYCMCAWRPRVEARAGMCLVMHDIEALKPTNTGWLIADTVADTFAFGWSRTEVDPRLLELLADPQWQPYLVFPGEYVAAERVVNEVAPLVEGKRPLFILLDATWTEARKMFRKSPYLEPFPVLSLLPEQLSRYRLRRSTRGEHLCTAEVAALCLELAGDEAAGEALGAYLEVFSERYLGAKRHIPLDEASPAHRALAPFRG”, the “soluble on expression in E. coli” value is on record as “not soluble”.

For “MSHELVELLRSVLKEELQPIHERLDRLEAGQQRLEERQQRLEERQQRLEERQQRLEEQQQRLGEKLDHFIIETRSHFKKIEDKLAGHRRMFDILPHDWRDTTMAIEYLKHKISQHDLEIYQLKKRLELQETK”, the “soluble on expression in E. coli” value is “not soluble”.

“MSHIIDRRLNGKNKSAVNRERFLRRFKAQIKEAVSKAIKGRSITDIESGEKVSIPVKDISEPSFHHGKGGVWENVHPGNEEFVKGDRIPRPQGGAGGGGSKASQDGEGEDDFVFQLSREEFMNVFFDDLALPNLVKTQLMGIEEMKTVRAGYTNDGTPTNINIVRSPRGALARRVAMAAPTLSSIDEAEEELDTLIESDDDNALEVRDRRQRIHQMKERLASIPWIDPFDLRYNNRVKQPKPTSQAVMFCIMDVSGSMDEQKKDMAKRFFILLYMFLQRNYEKIEVVFIRHHTSAVEVNEQDFFHSRESGGTVVSSALNLMSDVIRKRYASSEWNIYAAQASDGDNWDSDSANCGRILEENLLPYCQYFAYIEITEGEPQNLWYEYLKVKAQCPQFAMQKIRSASDIYPVFRELFKRQPANGRVSALEHHHHHH”: the “soluble on expression in E. coli” value is “soluble”.

“MSHTILLLQPTDNIESRSWSDYENTTECLEGICRVYEEYLKKKVPAQNEITYDISHLFEFIDDLKDLSMLVLDNTTYTYVPHNKQYVKESIYKLMNNRLNNQH”: the “soluble on expression in E. coli” value is listed as “not soluble”.

“MSHVFQIHSSQYKSPSQIPQGKVLVVGGGNSGMQIAVEFAKTHEVTMSISHPLTFLPLHFFRKSIFNWLEKLGLLYAEVSTKRGKWFQKRKDPIFGFEGKELIRNGAIQLQEKVVSASENNIMFQNGETYSAESIIWSTGFIQNYNWIEIEKVVNENGLPNHIKGISPVRGLYYIGLEHHHHHH”: the “soluble on expression in E. coli” value is “soluble”.

Turning to “MSHVSLQEFLKTEPDGTLEVVAEQYNTTLLEVVRNLPSSTVVPGDKFDTVWDTVCEWGNVTTLVHTADVILEFSGELPSGFHRHGYFNLRGKHGMSGHIKAENCTHIALIERKFMGMDTASILFFNKEGSAMLKIFLGRDDHRQLLSEQVSAFHTLAASLKEHA”, the “soluble on expression in E. coli” value is given as “soluble”.

Consider “MSIATTPLHTALSLPQIQSFAASDMAAIDTLIHDRLTSDIVLINQIADHIICSGGKRLRPMLTMLAGHAIGPTGPHHHQLAAIIEFIHTATLLHDDVVDGSELRRSRSTANALWGNAPSVLVGDFLYSRSFQLMTELANLEVMQILAETTNRISEGEVLQLLHVHNPDTDETTYLSVIERKTAILFAAAAQLGALASHADTQTQTRMYEYGMQLGYAFQITDDVLDYTANNSQLGKNLGDDLAEGKATLPVIHAMTHSDAATCERLRMIISKGDSDAMPEVLNAIRTTGSLDYSRQRASAYAATAERALDGLPETEAVAALRGLARYAVQRTY”, for which the “soluble on expression in E. coli” value was “not soluble”.

Turning to “MSIAVTTTDPTNTGVSTTSSSSLTGSNAADLQSSFLTLLVAQLKNQDPTNPMENNELTSQLAQISTVSGIEKLNTTLGSISGQIDNSQSLQASNLIGHGVMIPGTTVLAGTGSEEGAVTTTTPFGVELQQAADKVTATITDKNGAVVRTIDIGELTAGVHSFTWDGTLTDGSTATNGSYNVAISASNGGTQLVAQPLQFALVQGVIRGNNGNTLDLGTYGTTILDEVRQII”, the “soluble on expression in E. coli” value was “soluble”.

As for “MSIEQYFQHLACAPTSLNLIWFTVEMSELAKELPSKEAKTGLIKSIAHILHDEKFEKIRGDEAMLNLFEMLAKCSTKIGGAEVYKQAYGLDLFNYYKEFYFQWAHECGKIKSVSQFRTVFFLARSQLFYHLSPISIEKDFENIFQQYFGKLSMHHCLERTETLNKLFAGCSVEEFASAENVMSFGNSRELSGRSVDVRPNHRVLEVARGTMMSSSEISPNKSDSSVLLNKSPPTNSPIIKFGTYPKIHLQNVSSSMLNARRRQLTATVTTVDSQKGKPTFANETY”, the “soluble on expression in E. coli” value is recorded as “not soluble”.

Consider “MSIERSSPIPLYFQLAGELRAAIESGAYPPGSKLPTEGELCQQYDVSRSVVRQALQSLAHDNLIETERGRGAFVLERKVPIALVQQLDPLLESMAKAGFKLTTRVLKQERIKPPAHVAEQIGENDAVFLERLRYADGVVFLVVRNFLPYSRFPDLLQSKELEDVSLYQYLAKRYNAVATTGKRQVELARINEEAIAAQLHVEMNSYVLFNREVTYDQNKQVLEYYESWHHPDRTRLTIDLHRTY”, for which the “soluble on expression in E. coli” value is “not soluble”.

Take “MSIFDHYQSRYEAAKDEEMSLQEFLALCKDDKSAYANAAERLLMAIGEPEIIDTAKDPRLSRIFSNRVISRYETFKDFYGMEDAIEQIVSYLKHAAQGLEERKQILYLLGPVGGGKSSLAEKLKSLMEAMPIYVLSANGERSPVNDHPFCLFKATEDGEILKTDYGIEQRYLRSIMSPWAAKRLHEFGGDITKFKVMKVRPSILDQIGIAKTEPGDENNQDISSLVGKVDIRKLEHYSQDDPDAYSYSGALCKANQGLMEFVEMFKAPIKVLHPLLTATQEGNFNGTEGLSAIPFDGMILAHSNESEWQTFRNNKNNEAFLDRVYIVKVPYCLRVSEEVKIYQKLLENSELSQAPCSPSTLETLAQFSILSRLKEPENSS”: the “soluble on expression in E. coli” value is on record as “not soluble”.
